Test system: CC(C)C=O
Test: isobutyraldehyde reduction kinetics (A340, initial rates)
Assay type: biochemical, Mucor circinelloides
Details: other: 30° C., pH 7.0, NADH specific
Text: This example describes preparation of ADH-gene constructs for over-expression/purification and measurement of enzyme activities using a time-course assay. Horse-liver ADH (HLADH; A-6128) was purchased from Sigma. Achromobacter xylosoxidans SadB (SadB), Saccharomyces cerevisiae ADH6 (ScADH6) and ADH7 (ScADH7), Entamoeba histolytica ADH1 (EhADH1), Bos Taurus Aldehyde Reductase (BtARD), Beijerinckia indica subsp. Indica ATCC 9039 (BiADH), Clostridium beijerinckii ADH (CbADH), Rana perezi ADH8 (RpADH8), Rattus norvegicus ADH1 (RnADH1), Thermus sp. ATN1 ADH (TADH), Phenylobacterium zucineum HLK1 ADH (PzADH), Methylocella silvestris BL2 ADH (MsADH), Acinetobacter baumannii AYE ADH (AbADH), Geobacillus sp. WCH70 ADH (GbADH), Vanderwaltozyma polyspora DSM 70294 ADH (VpADH), Mucor circinelloides ADH (McADH), and Rhodococcus erythropolis PR4ADH (ReADH) were the candidates for which subclones were prepared for protein expression and purification.
As a routine practice, the crude extracts and purified proteins were assayed for butanol oxidation activity, in order to ensure that the recombinant proteins were active throughout the purification process. […] Alcohol oxidation activities were carried out in 50 mM sodium phosphate buffer at pH 8.8 and aldehyde reduction reactions were assayed in 190 mM potassium phosphate buffer at pH 7.0. […]
Kinetic constants of the ADH enzymes were calculated and compared to identify those candidate ADH enzymes with the most desirable properties for the conversion of isobutyraldehyde to isobutanol in the last step of the engineered pathway for isobutanol production. […] The kcat/KM is derived from the individual numbers of kcat and KM and not an experimentally determined value. […]
Seven additional candidate ADH enzymes were synthesized, expressed, and assayed according to methods such as described in Example 2. […] A comparison of KM, KI, and kcat/KM for each candidate enzyme as compared to the same parameter for SadB are given in Table 9 as a percentage of the values determined (Table 7) for SadB. […]

## Mucor circinelloides ADH (McADH), SEQ ID NO: 39 (Mucor circinelloides)
  Km: 30 mM
  kcat: 151 s⁻¹
  kcat/Km: 5000 M⁻¹ s⁻¹
